Biological target: PDGF receptors (alpha and beta sub-units)

Q: Which Mitogenesis ng/ml ([3H]thymidine uptake by Swiss 3T3 cells; activity read from the dose response curve of the PDGF-BB standard c-sis) does the source give for “PDGF-B (naturally occurring, full length; product of Comparative Example A) (ligand)” here?
A: 308 ng/mL

— US5512545
